Sequences and labels used below:
B1: 14-3-3 protein gamma (Mus musculus), P61982 (parent)
chain: MVDREQLVQKARLAEQAERYDDMAAAMKNVTELNEPLSNEERNLLSVAYKNVVGARRSSWRVISSIEQKTSADGNEKKIEMVRAYREKIEKELEAVCQDVLSLLDNYLIKNCSETQYESKVFYLKMKGDYYRYLAEVATGEKRATVVESSEKAYSEAHEISKEHMQPTHPIRLGLALNYSVFYYEIQNAPEQACHLAKTAFDDAIAELDTLNEDSYKDSTLIMQLLRDNLTLWTSDQQDDDGGEGNN

This experiment covers variants of B1. The note with it: with lrrk2_mouse Lrrk2, Q5S006.
Sequence of lrrk2_mouse Lrrk2, Q5S006 (Q5S006 whole entry): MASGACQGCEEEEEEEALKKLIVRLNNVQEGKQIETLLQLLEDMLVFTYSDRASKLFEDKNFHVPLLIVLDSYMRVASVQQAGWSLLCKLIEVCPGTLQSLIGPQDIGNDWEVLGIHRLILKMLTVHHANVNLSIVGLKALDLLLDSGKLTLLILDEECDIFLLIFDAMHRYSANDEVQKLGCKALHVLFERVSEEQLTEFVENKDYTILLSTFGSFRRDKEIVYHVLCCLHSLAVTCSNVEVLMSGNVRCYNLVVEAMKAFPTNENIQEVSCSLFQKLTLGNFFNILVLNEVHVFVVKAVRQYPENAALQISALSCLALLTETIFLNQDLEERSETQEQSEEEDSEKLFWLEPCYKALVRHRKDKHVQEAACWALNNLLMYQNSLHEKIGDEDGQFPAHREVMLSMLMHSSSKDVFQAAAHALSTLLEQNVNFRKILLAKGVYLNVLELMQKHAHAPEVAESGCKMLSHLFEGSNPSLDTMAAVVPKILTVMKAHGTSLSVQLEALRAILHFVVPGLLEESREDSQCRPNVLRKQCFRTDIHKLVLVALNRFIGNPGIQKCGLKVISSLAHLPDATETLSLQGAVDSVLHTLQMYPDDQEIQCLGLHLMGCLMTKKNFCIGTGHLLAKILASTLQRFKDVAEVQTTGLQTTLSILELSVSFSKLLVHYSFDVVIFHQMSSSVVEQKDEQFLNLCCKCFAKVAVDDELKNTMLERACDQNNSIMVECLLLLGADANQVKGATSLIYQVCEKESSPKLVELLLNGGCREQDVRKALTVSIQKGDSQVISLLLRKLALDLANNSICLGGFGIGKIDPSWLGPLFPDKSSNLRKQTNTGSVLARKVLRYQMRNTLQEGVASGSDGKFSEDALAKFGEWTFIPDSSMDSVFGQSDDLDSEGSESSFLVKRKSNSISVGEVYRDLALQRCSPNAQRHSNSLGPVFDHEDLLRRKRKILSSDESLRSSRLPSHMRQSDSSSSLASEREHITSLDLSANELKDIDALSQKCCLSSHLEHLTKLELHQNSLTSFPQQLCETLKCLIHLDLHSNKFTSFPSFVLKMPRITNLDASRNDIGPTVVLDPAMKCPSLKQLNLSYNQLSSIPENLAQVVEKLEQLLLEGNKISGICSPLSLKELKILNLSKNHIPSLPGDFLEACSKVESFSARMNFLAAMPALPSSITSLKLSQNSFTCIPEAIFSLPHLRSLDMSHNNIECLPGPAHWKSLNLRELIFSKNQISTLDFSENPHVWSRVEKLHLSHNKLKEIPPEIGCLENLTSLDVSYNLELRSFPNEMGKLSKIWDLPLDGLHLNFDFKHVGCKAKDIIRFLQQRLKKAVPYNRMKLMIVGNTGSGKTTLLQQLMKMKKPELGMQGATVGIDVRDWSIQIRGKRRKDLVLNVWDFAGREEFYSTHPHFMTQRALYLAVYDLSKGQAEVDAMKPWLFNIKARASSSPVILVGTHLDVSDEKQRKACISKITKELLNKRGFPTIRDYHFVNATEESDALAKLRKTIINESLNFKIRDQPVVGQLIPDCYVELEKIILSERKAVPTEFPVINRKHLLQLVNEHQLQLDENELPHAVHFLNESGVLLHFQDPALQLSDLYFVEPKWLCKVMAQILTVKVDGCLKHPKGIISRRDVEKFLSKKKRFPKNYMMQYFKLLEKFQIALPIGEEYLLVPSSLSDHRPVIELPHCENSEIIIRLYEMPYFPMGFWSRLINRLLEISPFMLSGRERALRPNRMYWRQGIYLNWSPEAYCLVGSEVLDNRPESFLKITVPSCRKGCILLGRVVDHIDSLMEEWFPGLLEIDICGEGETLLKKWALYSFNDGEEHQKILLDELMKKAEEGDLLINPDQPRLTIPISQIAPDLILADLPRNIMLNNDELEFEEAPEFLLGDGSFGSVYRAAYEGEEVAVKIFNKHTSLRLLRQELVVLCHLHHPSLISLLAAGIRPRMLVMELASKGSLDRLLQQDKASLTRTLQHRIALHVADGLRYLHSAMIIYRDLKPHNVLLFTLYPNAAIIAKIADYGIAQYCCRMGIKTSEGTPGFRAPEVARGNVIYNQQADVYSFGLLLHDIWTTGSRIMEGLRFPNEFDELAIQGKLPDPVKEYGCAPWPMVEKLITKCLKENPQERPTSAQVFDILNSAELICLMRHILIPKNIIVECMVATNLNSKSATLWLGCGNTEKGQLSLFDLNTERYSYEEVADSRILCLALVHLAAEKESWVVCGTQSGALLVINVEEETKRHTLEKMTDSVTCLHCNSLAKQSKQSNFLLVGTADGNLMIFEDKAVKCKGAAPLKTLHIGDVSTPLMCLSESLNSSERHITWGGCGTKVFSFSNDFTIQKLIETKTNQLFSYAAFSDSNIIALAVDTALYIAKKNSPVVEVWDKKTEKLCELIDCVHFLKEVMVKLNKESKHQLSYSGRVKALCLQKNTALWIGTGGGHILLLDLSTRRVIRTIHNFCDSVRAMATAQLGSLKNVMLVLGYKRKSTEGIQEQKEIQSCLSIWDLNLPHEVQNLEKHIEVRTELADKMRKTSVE
Consider K50E, for which the “effect of a mutation on the interaction” value is “disrupting interaction”.

With V181D, the “effect of a mutation on the interaction” value was “disrupting interaction”.

These data come from IntAct's records for PubMed 21390248.
